Assay results as given in patent US20030143647A1 (UNIVERSITY OF PITTSBURGH OF THE COMMONWEALTH SYSTEM OF …, published 2003).

B1: Human cyclin B1 peptide from the database, SEQ ID NO: 7 (AKYLMELTM) (peptide)
peptide: AKYLMELTM
notes: also called HeLa-derived cyclin B1 peptide
B2: Cyclin B1 peptide from the tumor, SEQ ID NO: 1 (AGYLMELCV) (peptide)
peptide: AGYLMELCV
notes: Synthesized by F-moc chemistry, with leucine at positions 4 and 7; also called P1
B3: Cyclin B1 peptide from the tumor, SEQ ID NO: 3 (AGYLMELCF) (peptide)
peptide: AGYLMELCF
notes: Synthesized by F-moc chemistry, with leucine at positions 4 and 7; also called P3
B4: Cyclin B1 peptide from the tumor, SEQ ID NO: 2 (AGYLMELCM) (peptide)
peptide: AGYLMELCM
notes: Synthesized by F-moc chemistry, with leucine at positions 4 and 7; also called P2
B5: Cyclin B1 peptide from the tumor, SEQ ID NO: 5 (AGYLMELCMA) (peptide)
peptide: AGYLMELCMA
notes: Synthesized by F-moc chemistry, with leucine at positions 4 and 7
B6: Cyclin B1 peptide from the tumor, SEQ ID NO: 6 (AGYLMELCFA) (peptide)
peptide: AGYLMELCFA
notes: as for B5
B7: Human cyclin B1 peptide from the database, SEQ ID NO: 8 (AKYLMELTML) (peptide)
peptide: AKYLMELTML
notes: as for B1

Biological target: T1, HLA-A2.1 molecules on T2 cells (human)
T1 construct: MHC class I molecule on the surface of T2 cells; also called HLA-A*0201
Test: HLA class I stabilization assay on T2 cells, MA2.1 staining, flow cytometry
Procedure: HLA Class I stabilization assays. Peptide-induced stabilization of HLA-A2.1 molecules on T2 cells was done as previously described (Zeh et al., Hum. Immunol., 39(2), 79-86 (1994)). 2×10⁵ T2 cells were incubated with […] of the indicated synthetic peptides in […] human B2m (Calbiochem, La Jolla, Calif.) for 18-20 hours at room temperature. The cells were then stained with the HLA-A2.1-specific antibody, MA2.1, for 45 minutes, washed with FACS Buffer (PBS, 5% FBS, and 0.01% sodium azide), and stained with a secondary FITC-conjugated anti-IgG antibody (Biosource International, Camarillo, Calif.). The cells were fixed in 4% formaldehyde prior to flow cytometry analysis. The negative control consisted of T2 cells without peptide. The positive control consisted of T2 cells loaded with the Flu matrix peptide, […]. Flow cytometric analysis was done using a FACScan flow cytometer (Becton-Dickinson). Experimental results are depicted as X-Fold increase=(Mean Fluorescent Intensity of T2 cells loaded with peptide/Mean Fluorescent Intensity of T2 cells with no peptide).

Compared with B1, B2 is lower in “HLA-A2.1 Binding (X-Fold increase of MFI)” value: 2.28 fold for the first, 1.6 fold for the second.

Compared with B3, B4 is higher in “HLA-A2.1 Binding (X-Fold increase of MFI)” value: 1.42 fold for the first, 1.48 fold for the second.

Going from AGYLMELCC (also called P4) [Cyclin B1 peptide from the tumor, SEQ ID NO: 4 (AGYLMELCC)] to B5, the “HLA-A2.1 Binding (X-Fold increase of MFI)” value falls from 1.61 fold to 1.58 fold.

Compared with B6, B7 is higher in “HLA-A2.1 Binding (X-Fold increase of MFI)” value: 2.08 fold for the first, 2.25 fold for the second.
